This note sets out measurements from patent US20230348852A1, “METHODS AND COMPOSITIONS FOR OCULAR CELL THERAPY” (NOVARTIS AG, priority 2020, published 2023).

One data set has as its system B2M. Description: Targeted PCR and NGS (amplicon sequencing) of on-target and off-target sites in genome-edited LSCs. In kind it is cell-based, human. The conditions noted are these: for Number of sites positive for off-target activity in LSCs: of the potential off-target loci sequenced; for B2M purified rhAmpSeq indel: purified (B2M negative) LSC populations. The method, then: Potential CRISPR/Cas9-mediated cutting sites identified above were evaluated using targeted PCR and NGS in genome-edited expanded LSCs.
Selected sgRNAs (SEQ ID NO: 120, 162, 166, 167, 171, and 175) were further analyzed by amplicon sequencing in edited and non-edited cells. Primers flanking the potential off-target sites for each guide were used to detect indels by NGS analysis in edited LSCs and non-edited peripheral blood mononuclear cells. Sites that had either (1) a difference in mean indel percentage between edited and unedited cells greater than 0.5%; or (2) a p value less than 0.05 between edited and unedited indel were further analyzed. NGS sequence reads for such sites were assessed for characteristic indel patterns near the putative Cas9 cut site. Based on the results, we could assess the specificity of gRNAs and their suitability for therapeutic applications.

Data set [1] relates to beta-2-microglobulin gene. Description: CRISPR/Cas9-mediated deletion of B2M in LSCs (nucleofection, FACS). Type of data set: cell-based, human. Conditions: nucleofection with Cas9 protein SEQ ID NO: 107, LSCs at passage 0, FACS. As to the method: LSCs at passage 0 were trypsinized with TryLE®Express Enzym (ThermoFisher, Cat #12605010) for 15 min in 5%CO2 at 37° C. After scraping the cells, the reaction was stopped by using cell culture medium containing 10% Serum and transferred to a falcon tube. After counting cells using Vi-cell 200′000 cells were prepared per reaction by transferring 200′000 cells in single tubes and centrifuged at 1000 rpm for 5 min.
The supernatant was aspirated using manually pipetting to avoid cell loss and the cells were resuspended in the Stem cell nucleofector solution II (Lonza, Cat #VPH-5022). Resuspend cells in nucleofector solution immediately before adding the Cas9 protein:sgRNA mixture. A stock of 100 µM (3.23 µg/µl) was prepared resuspending 5.1 nanomoles of single-guideRNA (sgRNA) in 51 µl 10 mM Tris buffer pH7.4. […]
In order to prevent cells sticking to the wall, collection tubes were filled with FACS buffer for 30 minutes before the sort and aspirated before adding the collection medium. […] FACS data were analyzed using BD FACSDiva software and FlowJo software.

The test system of the next data set is human B2M. In words: CRISPR/Cas9-mediated deletion of B2M in HEK293 (lipofection, FACS). Type of data set: cell-based. The conditions noted are these: lipofection of tracrRNA, gRNA and Cas9 mRNA; FACS after 72 h.

B1: 1-CR004366: gRNA targeting human B2M; targeting domain SEQ ID NO: 108; sgRNA SEQ ID NO: 120; from Dharmacon (nucleic acid)
guide: GAGUAGCGCGAGCACAGCUAGUUUUAGAGCUAGAAAUAGCAAGUUAAAAUAAGGCUAGUCCGUUAUCAACUUGAAAAAGUGGCACCGAGUCGGUGCUUUU
modifications: listed as RNA, chemistry not given here
notes: gRNA targeting human B2M; from Dharmacon
Regarding B1, the “validated indels for off-target activity in LSCs” value in the data set on B2M (amplicon sequencing of potential off-target loci) is “zero”. Further, in the data set on B2M, the “Number of sites positive for off-target activity in LSCs” value is on record as 0 of 64 and the “B2M purified rhAmpSeq indel” value is on record as 99.60±0.44%. Also, in the data set with B2M (listed as SEQ ID NO: 120), the “Number of sites positive for off-target activity in LSCs” value is “no predicted sites tested positive for off-target activity” and the “B2M purified rhAmpSeq indel” value was ~ 99%. Also, the “LSCs not expressing B2M and HLA I (HLA A, B and C) on cell surface” value in data set [1] is reported as “about 70%”. In addition, the “B2M knockout efficiency in HEK293” value with human B2M was determined as 70%.
